# According to US10323078B2, “Isolated peptides and fragments thereof from fibrinogen for use as drugs, particularly in skin inflammatory diseases” (Universite Paris Descartes, priority 2015, dated 2019):
# B1: MKRMVSWSFHKLKTMKHLLLLLLCVFLVKSQGVNDNEEGFFSARGHRPLDKKREEAPSLRPAPPPISGGGYRARPAKAAATQKKVERKAPDAGGCLHADPDLGVLC (protein)
# chain: MKRMVSWSFHKLKTMKHLLLLLLCVFLVKSQGVNDNEEGFFSARGHRPLDKKREEAPSLRPAPPPISGGGRARPAKAAATQKKVERKAPDAGGCLHADPDLGVLCMKRMVSWSFHKLKTMKHLLLLLLCVFLVKSQGVNDNEEGFFSARGHRPLDKKREEAPSLRPAPPPISGGGYRARPAKAAATQKKVERKAPDAGGCLHADPDLGVLC
# modifications: GST fusion; fragment Fg1
# notes: fragment of Bß chain of human fibrinogen having 106 amino acids; recombinant GST-fused peptide expressed in E. coli
# Experiments:
# P. acnes RON strain [1] = assay: Adhesion assay, biotinylated P. acnes binding to monocytes (ThP1); type: cell-based, Propionibacterium acnes; conditions: monocytes (THP-1); bacteria pretreated 0.87 to 7 μM, 1 h at 37° C.
# Protocol: FIG. 13: Dose-dependent inhibition of P. acnes RON binding to monocytes cell line. Biotinylated P. acnes RON strain at concentrations adjusted to 0.1 of absorbance at 600 nm was pre-treated with the recombinant peptides Fg1 and Fg2 and incubated 1 h at 37° C. with the human immortalized monocytes cell line ThP1. After removal of unbound bacteria, adhesion activity was detected at 410 nm. Data are means±S.D. of three separate experiments. Statistical significance is indicated by * (P<0.05), ** (P<0.01), *** (P<0.001), and **** (P<0.0001), respectively.
# (§1) The bacterial suspension was adjusted at 600 nm to the desired concentration, pretreated with peptides Fg1 and Fg2 at the final concentration ranging from 0.87 to 7 μM for 1 h at 37° C. and deposited on the previously saturated cells with a solution of PBS SVF 2% for 2 h. After incubation for 1 h at 37° C., unbound bacteria are removed by 3 washes with PBS and fixed bacteria are detected by a streptavidin-peroxidase solution of 0.5 μg/ml for 30 min.
# Whole P. acnes bacteria are labelled by biotinylation, pre-treated or not with the peptides and contacted with the various cell lines. After removal of the unfixed bacteria, the adhesion activity was measured spectrophotometrically by using the streptavidin-peroxidase conjugate and a chromogenic substrate. […]
# P. acnes RON strain [2] = assay: Adhesion assay, biotinylated P. acnes binding to fibroblasts (HDF); type: cell-based, Propionibacterium acnes; conditions: bacteria pretreated 0.87 to 7 μM, 1 h at 37° C.
# Protocol: as §1
# Whole P. acnes bacteria are labelled by biotinylation, pre-treated or not with the peptides and contacted with the various cell lines. After removal of the unfixed bacteria, the adhesion activity was measured spectrophotometrically by using the streptavidin-peroxidase conjugate and a chromogenic substrate.
# The ability of P. acnes strains 6919, RON and PIE was tested at 3 concentrations to adhere to various cells lines. It has been shown that the strains of P. acnes tested bound to the three kind of cell lines tested (keratinocytes, monocytes and fibroblast) with a maximum adhesion strength found for keratinocytes (FIG. 11). Knowing that P. acnes is able to recognize fibrinogen, it was used human and bovine whole fibrinogen to compete the interaction between the bacteria and the target cell. […] Then, the ability Fg1 to inhibit the adhesion of bacteria and RON PIE was evaluated on the 3 main types cell. […]
# NHDK cells = assay: IL-1β production by P. acnes-stimulated NHDK (ELISA); type: cell-based, human; conditions: P. acnes 6919, set I, bacteria first pretreated, 0.87 to 7 μM
# Protocol: (§2) For experiences of stimulation with P. acnes, cells were incubated with the P. acnes suspension adjusted at the appropriate concentration, pre-treated for 1 h at 37° C. or not with fibrinogen recombinant peptides Fg1 and Fg2 at the concentrations 0.87, 1.75, 3.5 or 7 μM for the desired period of time at 37° C. in 5% CO2.
# (§3) Human IL-1ß, IL-8, IL-12, hBD-2, and TNF-α protein concentration was measured in the supernatants of stimulated cells using various ELISA Set kits (Ready-Set-Go kit from eBioscience for acne experiments, and for psoriasis experiments the Duo set IL-8 kit from R&D Systems and the BD-2 Human Development (hBD-2) from Peprotech) according to the manufacturer's instructions. We used serial dilutions of recombinant human IL-1ß, IL-8, IL-12 and TNF-α for standard curve. The optical density was determined at 450 nm at a wavelength correction of 540 nm.
# To assess the efficacy of Fg1 recombinant peptide, the production of O2^∘− and H2O2 by HaCaT cells NHDK, THP-1, MRC5 and HDF stimulated by pretreated P. acnes strains 6919, RON and PIE was measured. The amount of ROS produced was compared to that produced by the stimulated cells with untreated bacteria. Production baseline was obtained by measuring ROS on unstimulated cells. The production of IL-1ß, IL-8, IL-12 and TNF-α was also measured in all conditions cited above. […]
# [3] = tested on: Pfg binding to fibrinogen; assay: Inhibition of biotinylated Pfg binding to coated fibrinogen; set-up: species or system Propionibacterium acnes; conditions: biotinylated Pfg pretreated with increasing amount of recombinant peptide 1 h at 37° C.; fibrinogen coated 25 μg per well
# Protocol: FIG. 9: Dose-dependent inhibition of biotinylated Pfg binding to fibrinogen by fibrinogen-derived peptide. Biotinylated PFg (0.4 mg) was pretreated with increasing amount of recombinant peptides Fg1 (♦), Fg2 (▪) or BSA as control (●) for 1 h at 37° C., and the binding activity to coated fibrinogen on polystyrene plate (25 μg per well) was evaluated. Results are expressed as mean±SD. Each point was done in quadruplet.
# Since it has been shown that only Fg1 was able to recognize Pfg, biotinylated Pfg was pre-treated with various concentrations of purified Fg1 and tested its ability to recognize immobilized fibrinogen. Fg2 and BSA were used as neative controls (FIG. 9).
# ThP1 cells [4] = assay: TNF-α production by P. acnes-stimulated ThP1 (ELISA); type: cell-based, human; conditions: 0.87 to 7 μM
# Protocol: as §2, §3
# (§4) To assess the efficacy of Fg1 recombinant peptide, the production of O2^∘− and H2O2 by HaCaT cells NHDK, THP-1, MRC5 and HDF stimulated by pretreated P. acnes strains 6919, RON and PIE was measured. The amount of ROS produced was compared to that produced by the stimulated cells with untreated bacteria. Production baseline was obtained by measuring ROS on unstimulated cells. The production of IL-1ß, IL-8, IL-12 and TNF-α was also measured in all conditions cited above. The measurement of the production of ROS is performed by spectrofluorimetry in the presence of specific fluorochromes directly on the monolayer cell. Measurement of cytokine production was performed in parallel on the cell culture supernatant.
# (§5) Two sets of experiments were implemented: 1) The cells were stimulated (18 h at 37° C.) by P. acnes strains previously pretreated with Fg1 and Fg2 peptides at the final concentrations ranging from 0.87 to 7 μM for 1 h at 37° C.; and 2) The cells were pretreated first with Fg1 and Fg2 peptides at the final concentrations ranging from 0.87 to 7 μM for 24 h at 37° C. and stimulated (18 h at 37° C.) by P. acnes strains.
# ThP1 cells [5] = assay: O2°− production by P. acnes-stimulated ThP1; type: cell-based, human; conditions: 0.87 to 7 μM
# Protocol: as §2
# All cells lines (5·10^4 to 10^5 cells/well) were seeded in 96-well plates (Corning Costar, Brumath, France) and treated as previously described. After stimulation, cells were washed three times in PBS and incubated with 100 μl per wells of 5 μM DHE (for determination of O2^●−) or 5 μM H2-DCFDA (for determination of H2O2) for 30 min as described previously and fluorescence intensity was recorded every hour over a period of 5 h. Fluorescence excitation/emission maxima were for DHE: 480/610 nm and for H2-DCFDA: 507/525 nm. At the end of the experiment, the number of adherent cells was evaluated by the crystal violet assay as described below. O2^●−, and H2O2 were assayed by spectrofluorimetry on a Fusion spectrofluorimeter (PackardBell, Paris, France). Levels of ROS were calculated in each sample as follows: reactive oxygen species rate (arbitrary units/min/10^6 cells)=(fluorescence intensity [arbitrary units] at T5h—fluorescence intensity [arbitrary units] at To/300 minutes/number of adherent cells as measured by the crystal violet assay, and were expressed as arbitrary unit (A.U.).
# as §4, §5
# MRC5 cells = assay: H2O2 production by P. acnes-stimulated MRC5; type: cell-based, human; conditions: bacteria first pretreated, 0.87 to 7 μM
# [6] = P. acnes 6919, set I, bacteria first pretreated
# [7] = P. acnes 6919, set II, cells first pretreated
# [8] = P. acnes PIE, set I, bacteria first pretreated
# [9] = P. acnes PIE, set II, cells first pretreated
# [10] = P. acnes RON, set I, bacteria first pretreated
# [11] = P. acnes RON, set II, cells first pretreated
molecule,measurement,setting,value
B1,Inhibition of adhesion of P. acnes RON strain,P. acnes RON strain [1],inhibits the adhesion of RON strain in a dose-dependent manner
same,Inhibition of adhesion of P. acnes RON strain,P. acnes RON strain [2],inhibits the adhesion of RON strain in a dose-dependent manner
same,Inhibition of Interleukine 1 beta (IL-1β) production,NHDK cells,pos
same,Inhibition of the recognition between Pfg and human fibrinogen,[3],dramatically decreased
same,Inhibition of Interleukine TNF alpha (TNF-α) production,ThP1 cells [4]; [6],pos
same,Inhibition of Interleukine TNF alpha (TNF-α) production,ThP1 cells [4]; [7],pos
same,Inhibition of Interleukine TNF alpha (TNF-α) production,ThP1 cells [4]; [8],pos
same,Inhibition of Interleukine TNF alpha (TNF-α) production,ThP1 cells [4]; [9],pos
same,Inhibition of Interleukine TNF alpha (TNF-α) production,ThP1 cells [4]; [10],pos
same,Inhibition of Interleukine TNF alpha (TNF-α) production,ThP1 cells [4]; [11],pos
same,Inhibition of Superoxide anion (O2°−) production,ThP1 cells [5]; [6],pos
same,Inhibition of Superoxide anion (O2°−) production,ThP1 cells [5]; [7],pos
same,Inhibition of Superoxide anion (O2°−) production,ThP1 cells [5]; [8],pos
same,Inhibition of Superoxide anion (O2°−) production,ThP1 cells [5]; [9],pos
same,Inhibition of Superoxide anion (O2°−) production,ThP1 cells [5]; [10],pos
same,Inhibition of Superoxide anion (O2°−) production,ThP1 cells [5]; [11],pos
same,Inhibition of Hydrogen peroxide (H2O2) production,"MRC5 cells; P. acnes 6919, set I",pos
same,Inhibition of Hydrogen peroxide (H2O2) production,"MRC5 cells; P. acnes PIE, set I",pos
same,Inhibition of Hydrogen peroxide (H2O2) production,"MRC5 cells; P. acnes RON, set I",pos
